Experimental data from the NTF2 design screens of Basanta et al. (2020).

Assay: protease stability score; higher = more stable; yeast display proteolysis, trypsin and chymotrypsin;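 further: relative to predicted unfolded state with 0 unfolded-like and 1 meaning tenfold more protease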

Row | Sequence | protease stability score
1 | SDEDEEMRELMERIHHAIKTGDEDLLHHMFDPNARVDIDGQIWHGREWEHFFLRKFKGLRIEIKRVHVQGDKIHFRGLDEINGVKFDSHLIIIIVNGKTHAIEIDHR | 1.53
2 | SDEDEISKHWVELLVEHIKTGDEDFLFKMFDPNVRVIIGDKIMHGRETLLDLIEKELKEAGITRFSMNLHHVDTQGDKAHSNMILDVNGVYRNVRVHFEKIDGKWHMHTWEER | 1.99
3 | SDEDHEAHRMMRLFFEAQRTGDEHLVRKLVDPDVRTFYGEKHMHGRRHHVEILLEIRIHRLTITELRVYGEKVRMDIRVDEQIGDKRREVRFELHLVVIDGVLKVVSIDME | 0.92
4 | SDEDHSSHLAHRWLLEILETGDEERLLRLADPNYRLDVDGRRFIGREDLLRWMKHVVERADHIELRDHHVDNQGDKVSSDVIVNERFDGKTERYRTHIVINKFDGKWVFHRFKIK | 0.928
5 | SDEDKELEHVMKKFEDALSTGDENTLYSLLDPNVKLEIGDKEIHGMEEFVRVMKRHLHELGAKFRSITIEHWNIIGEKVRLHSKIILDFNGRDIFLNTHIVMFKFDGRWIFETFKIQ | 2.23
6 | SDEDRLNYEIAKYLLDSLRTGDWHTFRRMADPHVKIRTVINGQELRMHGMEDLMERWKLLGFDHTRVHVEHIEIQGDKAHVRGTVKININGQEHTYETDLDVQIVNGRVESINFNWL | 1.14
7 | SDEEDHWHELLERIVRLLMTGDEKTLNKLFDPNMRIIIIIGDKEIRLHGRHKFEKWVRDFLNKFKNVKIEIDDHRAVNGVVQIDGTLFIDGREHHVENNFFIVNGRITEIQIHIK | 1.28
8 | SDEEDTLESVYKLLEHIERTGDWRIWKELADPNVRVELHVNGVEITDHGREAVERLMLKFGVDHIHFKDFDHRTYNGVVHIQEDIVLNINGREIRTKREISADKVNGKWVFRSVRMKID | 1.69
9 | SDEEEDIERAIRLMHEIHETGDESVWEHLADPHVKVDFNGQERHGREDMIKIWHYLGVKHVFFRDIRVQGEFLVVHSEDNVDGKTFQIRYLVFKINGRWFLEEVEFD | 0.942
10 | SDEEEEERRIAHELRHFWETGDEDAFRDMLDPHTRLQIDINGRHFHLHGREHIVRHLSEVWNKFGVKHLKFHDHHVVNGVTHMDGEENIGDKRRRVRIIIIVVNGRVRMVRIQIE | 1.45
11 | SDEEEEVREYYEKWFHDVYTGDEDSFRDMLDPHVKVEINGKELHGRENAEKFEKRMGVDHLNIRRFHFWDGRLEIRGESEYGDKRFKTEIHAIKINGRWVVKLIRFE | 0.761
12 | SDEEEILRRLMQEYYEIFFTGNEEFLHRLADPHVRFLVNGQWYHGREQFTRMFVELLEKLGAKHIELDRHTVRIIDGRIEIIIHTTIKVDGKEHTMHIIVNVEKINGRWILRSMEMEVR | 1.34
13 | SDEEELYEILLEIELKSAMTGDWRNLKDLLDPDTRIHFNGVEIHGREHAEKHLKRYDVDKIEDVRYRDMRFQGDKARVHGEVRILLQFDGRRMEIDTTIQVINYKVNGVWIIESLHFE | 1.24
14 | SDEEENLKEWVRLMYESARTGDEDSTSHLIDPNVRIHVNGRELHGRELVLEHLRRIDHVELRIHIREVETYDGRLKVEGELREIMIFNGKRVDLRIDTVFINLKVNGRWVLKEVHII | 1.34
15 | SDEEERIRRVAEHILHLILTGDEDRWEDMMDPNVRVHIDWNGVKIHLHGREKAAEFFKRFKNIRIEIHSVRIIGEKNDSDERLHVNGQTRDLHNHIIVVNGRIEHMEIRVR | 2.66
16 | SDEEERLERVSELLLHAIETGDWRILAELADPHVRLEIGDKEIHGREIVVDLIRKEYDKYKNMRITNEDFDVQGNKTEWHVNIHIGDKEVRIHIYNVVINGKIRRRHIHIR | 1.23
17 | SDEEERLRDFVRRYMESMRTGDEDTWRTMLDPNVQVTINGRWEIGRESAYEFLWTVFTHLGVDHLELDHFHLYGEKIELDLTAFVNGQTKKVRVELIVIDGKLKSEKIHDK | 1.12
18 | SDEEERTRTAIEQLIELRLTGDEEMLHKLVDPHYRLHFIVDGRDLDFIGWRDFQRIFHEETKKFKNMRIEWRHVDIVNGVVTVHIELKIGDKRDEIDLFFFKINGRWILKSVEVHRR | 1.47
19 | SDEEESFFTMLELFVEYLHTGDEHEFKKLADPHVRSLYDGVELHGREWFIRKFREMRVKSLHFHHSDIHIINGRARARIDVRLDGEVNGVEDLTETEIRLEVHKVDGQWVFHSVEIHRK | 1.33
20 | SDEEEYTRKAIERWIKDFITGNEDLIRKFADPNTRMEWNGKEHHGMELMVKVLKREIHEIRLQKFDVHHVEIYNGRAIVHLKLHGTIDGREETLDVIIFSEKINGQWRVEQLSIR | 1.39
21 | SDEEHELREATEILLHLFLTGDEESLDNLADPNVRVDYNGVKYHGREVLSFWLHEELKHARIHIRIRSLHLVGEFLHIQGEVRIEQGEFRRRHDMHWIIEKVDGRWIIRYVLIK | 1.56
22 | SDEEHIVQVALKNYIKAVMTGDEHLFNELMDPNTRNDINGVIYHGMEEWVKSVEELGIERFTIHEVYEHDFRVYNGQVDIHVRVDREVNGRRINDEVEIVAYKVNGRWQLRSLIFR | 1.39
23 | SDEEHLAERASKEWRHSVRTGDEHQLHEMIDPHVKLIVGDKEFHGREHFLEHLKHLRIKNVDIKRIRIIGDKVEIDSELHGHVNGVEIRTREHIHIEKIDGRWVITEVIWV | 0.955
24 | SDEEHQWELAFRFWITILKTGDEDHFERLADPHYLLQIGDKHVVGREQIAREIEKYRRELGVDHSHFDVDHIQVVGDKVEIQGSLEIRVGDKSIHHTTRTIIRKVDGRWLLKKVHFG | 1.23
25 | SDEEHRREKLNRIMLEWWMTGDWKHIEHLADPNVRLEMNIGNKHLDHHGREELSRLIIELLKELGFKHSHLEHVEIQGDKFISIVRLHVNGVHFIVHIESVIINGKLTELRIEIRKV | 1.21

Row | Sequence | protease stability score
26 | SDEEHSLKRMWKELAHAMMTGDEHTVTELLDPHVRFEYGEFDLHGREDWLEFLREIRILIHHFEVRHINNFENHINTDGFTDIIIIIGDKDIRRRRKTQYFQVKVNGQWLFRSIHVR | 1.41
27 | SDEEHVSRIALEIDIWLKETGDEHLLRHYLDPDTRSHFNGRSVHGMDILIKILHHWRIHDLEVKRMHLVGDFVELDIRVDGTFNGRRINMEQIIHVEKIDGQWHLKEVRIH | 1.54
28 | SDEEIAAKYMEDELQKSLKTGDEQKFRHLADPNVRSDINGVELIGWELIIKYWREIRSKVEDVRLKRVDVQGDKIHLHGLVDVEINVNGVRTREHLESHFVIVKIDGRWYVHSIEIR | 0.659
29 | SDEEKDAKRAIEIYLRMVETGDEETSKELMDPNVRMHVNGQDVHGRERVAKLFHELSRRIDHHEVRLDRWDVQGDKLIIHTEIIWRVNGVEIRRRTLIIMRKFNGRWYIEELNIE | 0.181
30 | SDEEKESKHMFKIYLDFLRTGNEEQYSEMADPNVRIEVNGVTIHGRELAVKFMKEVRDEMRIHDYRIRHLDVFNGRVHADTEENVEFNGVRFITRTKIHLHIVNGRIKSVREEID | 0.903
31 | SDEEKFFEKLLRDILHLWLTGDEDTFHQLLDPNMRSDVDGVDLHGRETVAKFLKERLKHLGIDHVQLESETAIGDKFFINTTISINGVETKMHLHFRVVNGVVHSLEVKVR | 1.26
32 | SDEEKFMHEMYELILKALHTGDEEFLEHFADPNTRLHINGRERHGRDEMKEFFKKFLDHWRIERFHVRSVEIFDGRVTSDTEIRGNIDGVRSEHRTDINIVIVNGRLKEINIHIE | 0.537
33 | SDEEKHAEEYHRQLTRDIMTGDEHILHELVDPHVLERVDGKDNHGWEEIAHFWVRFKNMRMHIEIHEIRHIGDFVDSDIKIRVVYNGKDITMRVHFHVEKINGRWLTTHIRIK | 0.352
34 | SDEEKIARLALEILIKILLTGDEKMILDNADPDVRLEVNGRQIHGMEWLSKIMTEWRFRDTHVRSVRNINGVVHVDGEQDVNYNGREETVHTHYIIEKVNGVWFLKRVVLH | 1.44
35 | SDEERDANRFIKLWVDAMTTGDWEEISLLLDPNVLLLVGDKTYHGREEFVRIMHELIERVKNIRVEIKHREVQGDKIRVDTVLRVNGRTLREHVVMEKVNGQWVIRSLEFD | 2.3
36 | SDEERDFTRLIRILRDALRTGDEHKLHELLDPHTRIIFDGQHHIGWERILEWADQIDHVHFRMTLHTVDIQGDKLRADLSLDVKIQVDGRTEHRHNVMHITVQKVNGRWRIQELYYK | 1.27
37 | SDEERDSRKAEEKWIRTLETGDERIITELADPNVRLEIGDKTFHGREDFYKFMTYLTRHLRVERFEIKRFDFQGEWIHMKTHINMRVGEFSHHSDTEIVAYKVNGRWVIHNVRVE | 0.831
38 | SDEEREFDIAFHLMRHVERTGDPHDMTKMADPNVRVDINGVEVVGREQLREEMRKLGVKYSHVEDFRTFDGRVILHGTLEINGQRRNTEIYASKINGRWHVEEYRFR | 1.14
39 | SDEEREIEHLARLFLEWWYTGDEDTIMKNADPHVRHDFNGVENIGRERVAEVVVHLIRELRIKSMHLHDIDIQGNKVDMNIELDGTYNGKRRKREMEIELVFINGRIKSSHVTIK | 1.17
40 | SDEERHAEFVSRRILHALRTGDWEILFKMADPNVKSTIGDKHHHGWEIMSDMYKKLWEDLGVKHLDLKRITYVDGVVHIDERIRIGDKTHNVELNFVVIDGVLRSVEVHVR | 1.14
41 | SDEERLLHELLHRVLHKRVTGDEESIWREIDPRARIDVNGRDVHGRDHFFEFIVKWMMHYGINHLEIKNQREIDGRIDVDFHEEVGDKRFHVRIIFHKINGRWHLTQEVFT | 1.19
42 | SDEERLLKEIYRIWIRLFETGDWKEFEQMFDPNVRLIIGDKDLHGMELYSKFMRHFVEHIRFEDHQEHEIRVIGDKIHVHGREVGNVNGKRHRREIEIRLVVVNGVFKSEELRVH | 1.18
43 | SDEERSIKILIDLYRLAQETGDERIMREYADPDMKLDIGDKRDHGWEVLVRMVRHLRFHEIHIEHFEVQGNKMHITVRIDTEVNGQRWILRAHIIVTKFNGKWRIEHREEE | 1.45
44 | SDEETITREYIRILIKMMRTGDESTLTRLADPHVRVDINGKDLHGRESLVEEMHKLIRDLGVERIEVHFRNIHIQGEWIVIHIDLQIGDKRFEVRDIALKIDGRWVHKSIEIQ | 1.33
45 | SDEHDVVRELLEIMEIVWRTGDWREMTKMFDPNTRISYGDKYIVGWEALEVLLKRIDHHTMHEIHFRDVHVQGDKIRLDGEVRFERHVGDYREHVTVDVHIHARKIDGRWINTNIRTH | 0.743
46 | SDEHERLKRFAEEWIRAVITGDFDRLYELMDPHARYHQGDKNHHGRDQIRHFLHRFKNIRIDYHRIELIGDKVHMDGWINYDGKEVETKITVHVIDGRVHIIHVWEI | 1.39
47 | SDEHEWERHLYHVLIHAVNTGDEDLVTEMMDPHVRTDINGVELHGRNELSRQLKEMGIKHLEIEHLDFVGNFLVSQVRVDVNGVDYKSEIIALKINGKWLLSELRLE | 1.04
48 | SDEIEEVKTFVRLFTKDLETGNEEDLKRLADPNTRLDVNGREIHGWKSMEHRYRELMEKYKNLRIEVKIDDIRVQGDKIHIHTTIKLDYDGVDIELSSWLVIHKINGRWFVRSIEME | 0.605
49 | SDEKKRLDDLAMTFLTLWMTGDWDHFARQADPHVRSDINGKELHGREIFVNFLREEMTRLGVDHFELHSVTVIDGKVHFDGEVDVNGVRHKTILWSVIFNGRIKSQEEEIR | 1.15
50 | SDELEEALKWLEELMRLTLTGNWDRLDELVDPNAKEVINGKELHGMHFFRRVLHEIRFTHIDVQDIRLQGNYVEVDLRVEGNIDGRHVDLHTEVILLKVNGRWLHKMRILR | 1.56
